In the DeepSol protein solubility set:

Experiment: soluble on expression in E. coli; label from the status in PepcDB or PDB records

Soluble on expression in E. coli, not soluble:
MGSDKIHHHHHHMLNFSLTPNAKILSKDADSYPYMYRNYPFLRPWVDSLKQVNALKDTFIINPQGIQLHAFYITAPAPTSKTAVIVHGYTDNAIRMFMIGYLYNRDLGYNILLPDLQHQGESEGRAIQMGWKDRIDVLQWMNIANEIFGDSTQMVVHGISMGGATTMMVSGEKQQPYVKCFVEDCGYTSVWDEFSHELKSSFHLPAFPLMYTTSWLCEKKYGWNFKEASSLKQVEKCELPMLFIHGDKDTYVPTWMVYPLYEAKPEPKELWIVPGAAHALSYKENKQEYTDKVRDFVGRYIH
MGSDKIHHHHHHMLNSDLDIRLEPRIKELYRLHKERSANIDWSYHEFIPWDKAMSFKRVPWEESQVTLPEGVIVAVETALLTEVNLPWYTSHLDYTFKNSMEVINDFVRTWTAEEDQHSSLLETYLLVTRNVNPTRLHQLRRRVVESGWFPDFTNPLATMAYTSLQELATLVFYNNVARVAGAHDKDLATLLRRLAKDEALHYAFYRDTVKAHLELDPNFIVFFEDVIINFSMPGAIMPDFTERMKTIAIDTNYGPLQYFDQVLDVVVKYWDIENLQPTSEEAKQSQANIMKYHGRLKRIKDRQSAKNKIDA
MGSDKIHHHHHHMLNSLSIFEQAIRALPIDRSLTRQDLFIDGFLLQQEQELSVYYSPIGEYINRSAKIVFIGITPGFEQMRLAYEEAADAFHHGATIEETSKLVKYSASFAGPMRRNLTAMLDELELHRLLNIASTATLFHTNQELLHTTSILRHPVFYRDKNYTGHQPKIDRTPLLQHYAYEHFAAELNQLPDPVILVPFGRVVESTVRTLLHQGRIKKHTVLFGFPHPSGANGHRKRQFEENKDYLMKQLNSYFNT
MGSDKIHHHHHHMLPLDSLSDCASKSYLLTHLPDLNHRHLSSSVSTNSELIAAVQDGTLNATAMHLLTAETQSAGRGQHGRSWQSPRGNVYLSLYHPVHIPISGLLSLIIGVELAKMPIIQTLNDQLCAQGLTPIGVKWANDLGFYSYQYHHQSELHKILLANEMTPFHKLAGILIEPVTQAGKLVGIVMGVGLNVQATPKLTAQTCEGMSYQAISLQDIKQLLEPDKSASALLSLRELYQQMSKALMAAMTRFEHLGLEKPTGQTYNLDSFLKQFDSMDALAGLRLRITQEHNGQTETLTGYACGIDTHGCLQLRQDNGNISALFTGRIDVIDNA
MGSDKIHHHHHHMLSRQGEYKSWEITEAVLPVASNQEEAKNILTDTNVATITKFYGRYQDFMEMPAPAEKVAEYLNAHALWFSRCAEPMKVQLLGENGYALVIGRFGAFGYEVEPKIGLELLPPEEGIYRIRTIPIPDYQSPGYDVDYRASLQLIENDACSSGEVTRVEWELDLIVDLHFPRFIQRLPKSIIQSTGDRLLNQIVRQVSRRLTRKVQQDFQKSLEIPFSGNSKQKR
MGSDKIHHHHHHMLTHSTNPRGGVVHAMQLSEALTALGHAVTLHAPDPKGTGFFRSPACGAACFPVPPALADMTALVEQRIADYIGHFEQADNRDFDVFHAHDGISGNALATLKSRGLIPSFVRTIHHIDQFEDPRLMVLQDRSIQRADAFLAVSAAWQAILRDSYGVDAKVVGNGVDNRRFSPAWSGEQTALRDRIGLHAGAVFLSIGGIEARKNTLGILDAFRQLRAVKPDAQLVIAGGVSLLDHRDYQEEFQSHLRALRDDAAAVHIIGAVSDDDMPNLYRLADALVFPSLKEGFGLVVLEAMASGVPAIVPSIAPFIDYLSGDDALWCDPLHSASIAEAMALALVPEIRERIIPRGLEVASRFTWRRVAEAHLSTYATLKEAAHA
MGSDKIHHHHHHMLTSVFGISIKYEAWNHQDSLPVYIAGSYDFHTAYIGNRRCIMLAPTEELATLPALKKQIVKIQQIDNVPVVFELTTVSNYRRKSLIENNIPFITDKQVFLPFIGTMLSDEKEPQKLTGKFVYSTQQLFLFYLYSKKKRLYTSEAGKVLPFTAMTLTRAVKQLETTDLFLVAKDGVNKFIESKYKRDELFEKAKVYLTTPVRKTGYIDKTQVTENMVFAGETALSEKTMLNPSRVVTYAISEKDYDKSLLTDELIDPDKQVRLELWAYNPKQFSEDNSADDISLVLSFKDTNDERIEEAVDELQERRLHE
MGSDKIHHHHHHMLYFQNAFSLRGTHDAIIVGIFEGHEPLVAELKQLDETLNGHLSTLVKQKQLKTEAGKITELYTFGLIETKWVLAVGLGKRSDASADTLRAGFAAVGERVKEKRMTNVTVVLPSFVSERVSEQEVARLFGESFTMGYSTIDDYKERTNLVDKSLNSVTVFHGHRPVETGIREGIAYGNGSVYAERLMSIPRTLLSPTELVTEAQALANRHGFDTETLEQKELEKLGMGGLLAASGPAENATMIVLKNKGKREEREVIGLIGAGGNGIFSPWMGGAAAVLGAMDIIGSLHSQKNVLAILPIVEQEQGQPKPMPGDVIRSYSGKTIEVDHIEAVGALLLADGITYAKELGVHSLVTVAPLAEELRSILGDKFTAAVTNDESWLKKMQEASLKSGEPIWTLPYYRPYKKRLQEESVADLRLTIGRFANCMATALFVGEFAENDPWVHLDIAGTVARARGIMVRTLAAFVLNNGERELR
MGSDKIHHHHHHMMEEYLGVFVDETKEYLQNLNDTLLELEKNPEDMELINEAFRALHTLKGMAGTMGFSSMAKLCHTLENILDKARNSEIKITSDLLDKIFAGVDMITRMVDKIVSEGSDDIGENIDVFSDTIKSFASSGKEKPSEIKNETETKGEEEHKGESTSNEEVVVLPEEVAHVLQEARNKGFKTFYIKVILKEGTQLKSARIYLVFHKLEELKCEVVRTIPSVEEIEEEKFENEVELFVISPVDLEKLSEALSSIADIERVIIKEVTAVTEESGAEKRTEKEEKTEKTEEKAERKKVISQTVRVDIEKLDNLMDLMGELVIARSRILETLKKYNIKELDESLSHLSRITLDLQNVVMKIRMVPISFVFNRFPRMVRDLAKKMNKEVNFIMRGEDTELDRTFVEEIGEPLLHLLRNAIDHGIEPKEERIAKGKPPIGTLILSARHEGNNVVIEVEDDGRGIDKEKIIRKAIEKGLIDESKAATLSDQEILNFLFVPGFSTKEKVSEVSGRGVGMDVVKNVVESLNGSISIESEKDKGTKVTIRLPLTLAIIQALLVKVNNLVYAIPIANIDTILSISKEDIQRVQDRDVIVIRGEVIPVYRLWEVLQIEHKEELEEMEAVIVRVGNRKYGIVVDDLLGQDDIVIKSLGKVFSEVKEFSGAAILGDGSIALIINVSGIV
MGSDKIHHHHHHMMRKYSDKKNAQTQNYYKDRFYHAPHTVKSDVNESVFKEDFEVLKTQVEILNSFVELDFWVIEIKKEDNVKTLQMLKTLGYLSFTEASAIDFIADKNGFEVFYQLLNLEKKLRVRIKTFVGVKERLQSVAHVFKGANWSEREIYDMFGIFIINHPNLKRILMPDDWFGHPLLKTYPLKGDEFARWYEIDKIFGKEYREVVGEEQRDSGFADDKDTLNFARLYHEVPKGGQKKEISFKQEYQEDEGVAFVKKVKRDEAKILEKRR
MGSDKIHHHHHHMMSDASLPALTLPPALRRVLPAARWERVTEGESGAGVWRSTRFVVKVQSRTLYPASTLLQERERLRWFAGRLPVPQVVAYEDDGEQEYLAMTRLPGIAMSHPDAALHPERMVNLLARALRELHALPVRDCPFNMSLGVRLKLARERVAAGVVDESDFDEERQGQSAVQVFNQLARTRPAEEDLVVTHGDACLPNVIVQGEYVEGLIDLGRAGIADRHMDLALAWRSTRRNLGATYAGMLLDLYGRELVDEGKLAYYQLLDELF
MGSDKIHHHHHHMMTQVPDTPQALYRALPSMDSLLADAVLAPLLQRYGKAAVKAALDSQLRTARELIAQERRLPAWCANPSLLNGYLVDQLSKDYSHSLKPVWNLTGTILHTNLGRAQQSEAAIRAVTSVMRYPTPLEFELAAGERGHRDNAISGLIQRLTGAEACCVVNNNAAAVLLMLSAVAAGKEVIVSRGELVEIGGAFRIPDIMRQAGCTLVEVGSTNRTHLKDYEQAITENTAAIMKVHTSNYHISGFTAAVEEARLGQLCRERGILLISDLGSGSLTDLRRFGLKQEPTPQAMLADGVDLVSFSGDKLLGGPQSGLIVGKQALINKLQSHPLKRALRCDKLILAALEATLIHYLNPETLDKELPIMAKFARSQAELRQIGERLQQALAPLFTPSYGLELVECQTQVGSGSQPDTFLPSIGLCFNAQEGGSLTLLEQHFKQAQRPVIGRMTQDQLRLDLRGIDDEAELLAELSTLGVQL
MGSDKIHHHHHHMNALQFQKKLLSMQENMMNFALMLTANRDDAQDLMQDTTLKVLDNQEKFVDNINFKGWVLTVMRNIFINNYHKIVRTQTVVDQGVDLYNLDVVNDSGFDSPDGAYQIQEITKAINGLNNELKVPFSMFLSGYKYNEIADKLDVPLGTVKSRIFFARQELQKVLKDFRQG
MGSDKIHHHHHHMNETPLRLLEMLTQTREDLWRAAQALTERGVTRIILTGSGTSYHGALTARTFMQRWCALPVDVCWPFMLDDETLARSGKALVVGISQGGGSLSTLAAMERARNVGHITASMAGVAPATIDRAADYILTVPCGEETAGAKTKGYHCTVLNLMLLALAVAGQQQRLDGEQRRSLLLRMEKTFNHLPALVTASQAWAQTNALALRDSADIRLTGPATLFGTVQEGALKMLETLRCPVSGYEFEEFIHGIYNAFNAQSALIMLDPQPDARQDRLAQILGEWTPSIYRIGPQVENNGLNLNFPFVNDEDFAVFEYIIPLQMLCAILPPQKGINPAIPKDPQFHQKMKSKQEI
MGSDKIHHHHHHMNFIKEKHIEIVLNQTCLNPKLSVFLPVIKKTGVQLISVFHSQPYGMYGIKAFPKICNVFGVDKVGNLVDVLIHFAFKLKYGRYLKRMLQYSDKLVMLSDKFINEFLYFSGKKYAEKMLSISNPVTINGGGSEKKEKIVLFVGRISQEKGVDKILEVWRGICHEEKYKEWRLVIVGDGEKRKQMEKYAMDMELINYSFEGFQKPDGYYDKAKIFCMASAFEGFGLVLVEAMSYGVVPMAFNSFSNCSDIIDDDKNGILVTPFSINEYRKKIIELIENDEKWMKMSTCSINKSKEYSIECIGAKWLDLFYSLLNNKVT
MGSDKIHHHHHHMNFTHKNLQRSYMAERTMVILDGGMGRELQRSGAPFRQPEWSALALSEAPEAVVGVHAAFIDAGAQVITSNSYAVVPFHIGEERFAAEGRQLAHIAGQLARHAADSGAHPVRVAGSLPPLFGSYRPDLFQPERVAEVLTPLLQGLAPHVDLWLAETQSSVAEVRAIHSHLPADGRPFWVSFTLQDEEVDEVPRLRSGEPVAEAIEAAVGLGVAAVLFNCSQPEVIGAAIDVARSVIERHNAEIAIGAYANAFPPQPKEATANDGLDELREDLDPPGYLAWAKDWRARGASMVGGCCGIGPEHIAELKRNLA
MGSDKIHHHHHHMNHIGTREIATERLTLRRFEIEDAENMFYNWANDPEVTKYLTWPAHESVDTTETILKEWISKYDEKDFYQWAIELNDLEQPIGTISAIKTDERVESVEIGYCIGKRFWNNGYMTEALTAIIRFFINEVGAGRIWARHDTENPNSGKVMVAAGMDYEGTLRHAGFNNQGICDEAVYAKVRSAALDEEPEEETPEQQAVTTKVMGEDGVMRNVISDETMEYVGILAKLELSPEEAEAAKKDMADMLDYIDKLEELDTSGIEPMSHVFPVNNVFRDDVVTNGDGSEATLANAPVKKDGGFKVPKTIGE
MGSDKIHHHHHHMNHYVEGKLLIIGGAEDKKGECKILKRFIQEAGGRESRVVVLTAATEMPEQVGSEYKELFENLGAAEVQVLDIAERVSANRESISQELQKATGIFFTGGDQLRITGILGGTRLGRTLHNLYQRGVIIAGTSAGASVMSDTMIVGGEAGTPKKDTLTMAPGLGLLHSVVVDQHFAQRGRIGRLLTAIAQNPYVLGVGIDEDTSILVYSDGHFTVVGSQTVTVVDASPTMASNVSEISPGQALVLTPVLMHILSDGYRFDLKRRAASLNETPSGG
